From article PMC6891902, “GLTSCR1 Negatively Regulates BRD4‐Dependent Transcription Elongation and Inhibits CRC Metastasis” (Advanced Science, 2019) come the findings set out here.

The assay has as its target T1, His-tagged BRD4 (1-470, BDs domain) (UniProt O60885 1-470).
T1 construct: BRD4, BDs domain (BD1 + BD2), aa 1-470; also called His-BRD4 (BD1 + BD2); pET-28a-His-BRD4 (1-470)
The experiment in a line: pull-down; GST pull-down; purified GST-GLTSCR1 (1161-1361) incubated with purified His-tagged BRD4 fragment at 4 °C overnight; beads washed three times in lysis buffer (0.5% Triton-X100, 50 mM NaH2PO4, 300 mM NaCl); immunoblot. The following applies: both partners purified.

B1: GST-GLTSCR1 (aa 1161-1361), BRD4 binding domain (BB domain) (domain or fragment, human, UniProt Q9NZM4 1161-1361, looked up)
chain: EESRRVSPSAEMVMIDRMFIQEEKTTLALDKQLAKEKPDEYVSSSRSLGLPIAASSEGHRLPGHGPLSSSAPGASTQPPPHLPTKLVIRHGGAGGSPSVTWARASSSLSSSSSSSSAASSLDADEDGPMPSRNRPPIKTYEARSRIGLKLKIKQEAGLSKVVHNTALDPVHQPPPPPATLKVAEPPPRPPPPPPPTGQMNG
notes: also called GST-tagged GLTSCR1 BB domain; source: E. coli BL21, purified (glutathione agarose beads)
Regarding B1, the binding result was “binds”.
